Data as given in patent US20160326230A1, “HUMAN RELAXIN ANALOGUE, PHARMACEUTICAL COMPOSITION OF SAME, AND PHARMACEUTICAL APPLICATION OF SAME” (SHANGHAI HENGRUI PHARMACEUTICAL CO., LTD., priority 2013, published 2016).

Key:
[1] = In vivo half-life measurement in rats (Human relaxin-2 ELISA of blood samples); parameters: species or system Sprague Dawley (SD) rats; conditions: SD rats, caudal vein injection, 0.5 mg/kg/rat
Experimental: A total of 12 experimental Sprague Dawley (SD) rats (6 male and 6 female) were used in this test (purchased from SINO-BRITSH SIPPR/BK LAB. ANIMAL LTD., CO, Certificate No.: SCXK (Shanghai) 2008-0016, 160-180 g), and the maintenance environment was SPF grade. SD rats were kept for 3 days in the laboratory environment, at a temperature of 20-25° C., with a humidity of 40-60%. The wild-type human relaxin analog 800828 (WT, prepared in Example 29) with the original sequence was used as a positive control in this test.
Rats were randomly divided into 3 groups, with 4 rats in each group, half males and half females. Control (saline) and human relaxin (analog 800814, WT 800828) were injected into the caudal vein of the rats (4 rats/sample) with a dose of 0.5 mg/kg/rat. Blood samples were taken from the rats' orbital sinuses at 0 h, 0.03 h, 0.08 h, 0.25 h, 0.5 h, 1 h, 1.5 h, 2 h, 4 h, 6 h and 8 h after the injections. Blood samples were centrifuged, and the supernatant was collected and stored at −20° C. for further analysis. After blood collection, the content of relaxin in the blood samples was detected using the Human relaxin-2 Quantikine ELISA Kit (R&D). The T1/2 of the test drug was calculated by T1/2 formula and EXCEL.

THP-1 cells = test: In vitro bioactivity assay: cAMP production induced in THP-1 cells (cAMP ELISA); assay type: cell-based; conditions: 30 min incubation, forskolin + IBMX, average of three experiments, listed as 800828 (WT)
Experimental: The disclosed human relaxin analog (800814) binds to the receptor on THP-1 cells, and induces the production of cAMP in THP-1 cells. To determine the in vitro activity of human relaxin analog (800814), the generation of cAMP was detected. The wild-type human relaxin analog 800828 (WT) (prepared in Example 29) with the original sequence was used in this test as a positive control.
The cells used in the experiments, i.e., THP-1 (ATCC, Product Number: TIB-202™), were cultured in suspension at 37° C., 5% CO2, and used for experiments or passage when the cells were preferably in the logarithmic growth phase. THP-1 cells can be passaged every 2-3 days, with a dilution ratio of 1:3 to 1:4. The medium was RPMI1640, with 0.05 mM b-mercaptoethanol and 10% FBS. On the day of the experiment, THP-1 cells in logarithmic growth phase were collected by centrifugation, and resuspended in DMEM/F12. The cell density was adjusted to 2×10^6 cells/ml, and the cells were seeded in a 96-well plate (50 μl each well) and incubated in a 37° C. incubator for 30 minutes. […] The content of cAMP was detected with a CAMP ELISA KIT (CELL BIOLABS).
Data obtained in the above experiment was fit to a nonlinear curve using Graphpad Prism, and the EC50 value (ng/ml) of CAMP induced in the THP-1 cells by human relaxin analog (800814) was determined.

ICR mice = test: In vivo biological activity: pubis width in estradiol-primed female ICR mice; conditions: s.c. 6 μg/100 μl/mouse, 40 hours later, ratio to solvent control group (=1)
Experimental: ICR mice (female, purchased from SINO-BRITSH SIPPR/BK LAB. ANIMAL LTD., CO, Certificate No.: SCXK (Shanghai) 2008-0016, 18-20 g) were used in this test, and the maintenance environment was SPF grade. After their purchase, ICR mice were kept in the laboratory environment for two weeks in the following conditions: illumination: 12/12-hour light/dark cycle regulation, temperature: 20-25° C.; humidity: 40-60%. The wild-type human relaxin analog 800828 (WT, prepared in Example 29) with the original sequence was used as a positive control in this test.
One week before the experiment, each female ICR mouse was subcutaneously injected with 5 μg/100 μ1/animal of β-estradiol (water-insoluble, slightly soluble in oil), which was mixed with olive oil. Six days later, ICR mice with a body weight less than 22 g were excluded, and the rest of the animals were equally divided into groups according to body weight. The animals were subcutaneously injected with relaxin 800828 (WT) ([…]/100 μl/mouse), 800814 (6 μg/100 μl/mouse) or 0.1% benzopurpurine 4B saline (solvent control group). Relaxin 800828 (WT) and 800814 were dissolved in physiological saline containing 0.1% benzopurpurin 4B. 40 hours later, the pubic bones were removed, skin and muscle were removed from the bone, and the pubis width was measured under microscope. […]

EC50 of cAMP induced in THP-1 cells (THP-1 cells) | Compound | T1/2 [1] | half-life ([1]; both sexes, Sprague Dawley, supernatant of centrifuged blood, iv) | relative pubic width (ICR mice)
– | CC[C@H](C)[C@@H]1NC(=O)[C@H](C)NC(=O)[C@H]([C@@H](C)CC)NC(=O)[C@H](CCC(N)=O)NC(=O)[C@H](C)NC(=O)[C@H](CCCNC(=N)N)NC(=O)[C@H](C(C)C)NC(=O)[C@H](CC(C)C)NC(=O)[C@H](CC(=O)O)NC(=O)[C@H](CCCNC(=N)N)NC(=O)CNC(=O)[C@@H](NC(=O)[C@H](CC(C)C)NC(=O)[C@H](CCCCN)NC(=O)[C@@H](NC(=O)[C@@H](NC(=O)[C@H](CCC(=O)O)NC(=O)[C@H](CCC(=O)O)NC(=O)[C@H](CCSC)NC(=O)[C@H](Cc2c[nH]c3ccccc23)NC(=O)[C@H](CO)NC(=O)[C@@H](N)CC(=O)O)C(C)C)[C@@H](C)CC)CSSC[C@@H]2NC(=O)[C@@H](NC(=O)[C@H](CCCCN)NC(=O)[C@H](CC(N)=O)NC(=O)[C@H](C)NC(=O)[C@H](CC(C)C)NC(=O)[C@H](C)NC(=O)[C@H](CO)NC(=O)[C@H](Cc3ccc(O)cc3)NC(=O)[C@H](CC(C)C)NC(=O)[C@@H](N)CC(=O)O)CSSC[C@H](NC(=O)CNC(=O)[C@H](C(C)C)NC(=O)[C@H](Cc3c[nH]cn3)NC2=O)C(=O)N[C@@H]([C@@H](C)O)C(=O)N[C@@H](CCCCN)C(=O)N[C@@H](CCCNC(=N)N)C(=O)N[C@@H](CO)C(=O)N[C@@H](CC(C)C)C(=O)N[C@@H](C)C(=O)N[C@@H](CCCNC(=N)N)C(=O)N[C@@H](Cc2ccccc2)C(=O)N[C@H](C(=O)O)CSSC[C@@H](C(=O)NCC(=O)N[C@@H](CCSC)C(=O)N[C@@H](CO)C(=O)N[C@H](C(=O)N[C@@H](Cc2c[nH]c3ccccc23)C(=O)N[C@@H](CO)C(=O)O)[C@@H](C)O)NC1=O [relaxin 800814] | does not affect its half-life | 52.8 min | –
3.05 ng/mL | relaxin 800828: wild-type human relaxin with the original sequence, expressed in E. coli, refolded and digested; positive control; precursor SEQ ID NO: 23 | 52.2 min | – | 1.24
